Target: the molecule itself
Experiment: nonreducing PAGE and immunoblotting

B1: STING (natural protein, mouse (endogenous in BMDMs), UniProt Q3TBT3 1-378, looked up)
chain: MPYSNLHPAIPRPRGHRSKYVALIFLVASLMILWVAKDPPNHTLKYLALHLASHELGLLLKNLCCLAEELCHVQSRYQGSYWKAVRACLGCPIHCMAMILLSSYFYFLQNTADIYLSWMFGLLVLYKSLSMLLGLQSLTPAEVSAVCEEKKLNVAHGLAWSYYIGYLRLILPGLQARIRMFNQLHNNMLSGAGSRRLYILFPLDCGVPDNLSVVDPNIRFRDMLPQQNIDRAGIKNRVYSNSVYEILENGQPAGVCILEYATPLQTLFAMSQDAKAGFSREDRLEQAKLFCRTLEEILEDVPESRNNCRLIVYQEPTDGNSFSLSQEVLRHIRQEEKEEVTMNAPMTSVAPPPSVLSQEPRLLISGMDQPLPLRTDLI
stoichiometry N: 2
